# T1: GST-Rlp24C fragment (C-terminal fragment of the substrate protein Rlp24) (yeast, UniProt Q07915 147-199)
# T1 construct: Rlp24, shuttling ribosome maturation factor of yeast, C-terminal fragment Rlp24C; The GST fusion was immobilised in SPR; also called Rlp24C-domain; source: purified
# T1 sequence (looked up): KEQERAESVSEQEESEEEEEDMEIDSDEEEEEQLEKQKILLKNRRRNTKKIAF
# Legend:
# [1] = biological target: T1, GST-Rlp24C fragment (C-terminal …); test: SPR; Biacore X100; 200 RU GST-Rlp24C amine-coupled on a CM5 chip, GST alone in the reference cell; 2 µM Drg1 with 1 mM ATPγS injected with or without 200 µg/ml diazaborine; 120 s association, 180 s dissociation; 20 mM HEPES-KOH, 150 mM KOAc, 5 mM Mg(OAc)2, 0.1% Tween-20, 1 mM DTT, pH 6.8; half-life from one-phase exponential decay; settings: both partners purified
# [2] = biological target: the molecule itself; test: cryo-EM structure; single-particle cryo-EM of full-length wild-type Drg1, 1.75 mg/ml, with 2 mM ATPγS and 200 µg/ml (740 µM) thieno-diazaborine 2b18; 20 mM HEPES-KOH, 150 mM KOAc, 5 mM Mg(OAc)2, 0.005% Tween-20, 1 mM DTT, pH 7.6; no symmetry imposed
binder,measurement,setting,value
"Drg1 (AAA-ATPase), full-length wild type (enzyme, yeast, UniProt P32794 1-780, looked up, Drg1, hexameric type II AAA-ATPase of yeast (N-domain, D1 and D2 AAA-domains), full-length wild type; the atomic model covers amino acids 239-780 of each of the six monomers; Hexamer in the presence of nucleotide (ATPγS); also called Drg1 wild type; wild-type Drg1; source: overexpressed in yeast as GST-Drg1, purified (GSH-agarose, eluted by Prescission protease cleavage from the GST-tag)) MAPKSSSSGSKKKSSASSNSADAKASKFKLPAEFITRPHPSKDHGKETCTAYIHPNVLSSLEINPGSFCTVGKIGENGILVIARAGDEEVHPVNVITLSTTIRSVGNLILGDRLELKKAQVQPPYATKVTVGSLQGYNILECMEEKVIQKLLDDSGVIMPGMIFQNLKTKAGDESIDVVITDASDDSLPDVSQLDLNMDDMYGGLDNLFYLSPPFIFRKGSTHITFSKETQANRKYNLPEPLSYAAVGGLDKEIESLKSAIEIPLHQPTLFSSFGVSPPRGILLHGPPGTGKTMLLRVVANTSNAHVLTINGPSIVSKYLGETEAALRDIFNEARKYQPSIIFIDEIDSIAPNRANDDSGEVESRVVATLLTLMDGMGAAGKVVVIAATNRPNSVDPALRRPGRFDQEVEIGIPDVDARFDILTKQFSRMSSDRHVLDSEAIKYIASKTHGYVGADLTALCRESVMKTIQRGLGTDANIDKFSLKVTLKDVESAMVDIRPSAMREIFLEMPKVYWSDIGGQEELKTKMKEMIQLPLEASETFARLGISAPKGVLLYGPPGCSKTLTAKALATESGINFLAVKGPEIFNKYVGESERAIREIFRKARSAAPSIIFFDEIDALSPDRDGSSTSAANHVLTSLLNEIDGVEELKGVVIVAATNRPDEIDAALLRPGRLDRHIYVGPPDVNARLEILKKCTKKFNTEESGVDLHELADRTEGYSGAEVVLLCQEAGLAAIMEDLDVAKVELRHFEKAFKGIARGITPEMLSYYEEFALRSGSSS",fold slower dissociation with diazaborine against without,[1],2 fold
same,stoichiometry N,[2],6

# — paper PMC8190095, “Structural basis for inhibition of the AAA-ATPase Drg1 by diazaborine” (Nature Communications, 2021)
